Five sequences from patent publication US20150258192A1, “COMPOSITIONS AND METHODS FOR PREVENTING OR TREATING CHRONIC LUNG ALLOGRAFT DYSFUNCTION (CLAD) AND IDIOPATHIC PULMONARY FIBROSIS (IPF)” (priority 2014, published 2015) can be followed below.

No end group written: not given here.

Test in all cases: Kinase Profiling Assay
What all share (type): biochemical
What all share (settings): peptide 100 μM

In one assay the target is T1, MARK1(h) (Homo sapiens, UniProt Q9P0L2).
T1 construct: purchased Millipore
Put shortly: (§1)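 Radiometric filter-binding format: cationic substrate takes up labeled phosphate from ATP unless the inhibitor peptide blocks the kinase. Substrate bound to an anionic filter, scintillation-counted, normalized to 100% activity control. Duplicates; part of a 266-kinase selectivity panel for MK2 peptides.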

The target of another assay is T2, MLK1(h) (Homo sapiens, UniProt P80192).
T2 construct: purchased Millipore
Put shortly:
as §1

In a further assay the target is T3, MST1(h) (Homo sapiens, UniProt Q13043).
T3 construct: purchased Millipore
T3 sequence (Q13043 1-487): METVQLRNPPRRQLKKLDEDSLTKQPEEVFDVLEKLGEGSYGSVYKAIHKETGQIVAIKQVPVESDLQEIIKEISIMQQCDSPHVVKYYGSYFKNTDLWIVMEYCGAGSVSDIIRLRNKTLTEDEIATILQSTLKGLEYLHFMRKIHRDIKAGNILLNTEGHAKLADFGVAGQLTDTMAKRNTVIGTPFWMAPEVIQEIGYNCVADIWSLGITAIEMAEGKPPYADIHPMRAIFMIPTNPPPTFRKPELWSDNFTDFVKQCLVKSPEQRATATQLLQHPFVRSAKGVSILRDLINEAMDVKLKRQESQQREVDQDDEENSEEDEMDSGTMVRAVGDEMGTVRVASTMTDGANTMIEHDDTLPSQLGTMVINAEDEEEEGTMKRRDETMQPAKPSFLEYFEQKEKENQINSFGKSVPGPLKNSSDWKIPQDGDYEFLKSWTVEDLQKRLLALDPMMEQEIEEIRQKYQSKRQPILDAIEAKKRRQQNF
Put shortly:
as §1

A further assay deals with T4, NEK11(h) (Homo sapiens, UniProt Q8NG66).
T4 construct: purchased Millipore
T4 sequence (Q8NG66 1-645): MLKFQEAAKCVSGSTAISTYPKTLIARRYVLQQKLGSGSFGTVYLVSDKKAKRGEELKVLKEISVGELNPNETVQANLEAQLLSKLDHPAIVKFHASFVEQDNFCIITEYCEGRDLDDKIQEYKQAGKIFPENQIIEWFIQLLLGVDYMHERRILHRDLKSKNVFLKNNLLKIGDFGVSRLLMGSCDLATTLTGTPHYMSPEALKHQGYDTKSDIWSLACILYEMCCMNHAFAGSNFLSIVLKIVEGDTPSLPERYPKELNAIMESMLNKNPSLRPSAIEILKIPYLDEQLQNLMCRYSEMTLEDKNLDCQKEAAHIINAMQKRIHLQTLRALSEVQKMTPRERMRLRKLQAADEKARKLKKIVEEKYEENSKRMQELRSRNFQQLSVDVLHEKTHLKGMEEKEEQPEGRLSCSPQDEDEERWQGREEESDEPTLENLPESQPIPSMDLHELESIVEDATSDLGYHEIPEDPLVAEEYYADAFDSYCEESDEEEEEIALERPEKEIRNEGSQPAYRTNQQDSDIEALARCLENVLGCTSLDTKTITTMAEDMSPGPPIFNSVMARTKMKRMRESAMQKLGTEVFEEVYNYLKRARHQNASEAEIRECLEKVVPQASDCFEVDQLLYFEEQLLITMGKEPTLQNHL
The essentials: as §1

For a further assay, the target named is T5, TAO3(h) (Homo sapiens, UniProt Q9H2K8).
T5 construct: purchased Millipore
T5 sequence (Q9H2K8 1-898): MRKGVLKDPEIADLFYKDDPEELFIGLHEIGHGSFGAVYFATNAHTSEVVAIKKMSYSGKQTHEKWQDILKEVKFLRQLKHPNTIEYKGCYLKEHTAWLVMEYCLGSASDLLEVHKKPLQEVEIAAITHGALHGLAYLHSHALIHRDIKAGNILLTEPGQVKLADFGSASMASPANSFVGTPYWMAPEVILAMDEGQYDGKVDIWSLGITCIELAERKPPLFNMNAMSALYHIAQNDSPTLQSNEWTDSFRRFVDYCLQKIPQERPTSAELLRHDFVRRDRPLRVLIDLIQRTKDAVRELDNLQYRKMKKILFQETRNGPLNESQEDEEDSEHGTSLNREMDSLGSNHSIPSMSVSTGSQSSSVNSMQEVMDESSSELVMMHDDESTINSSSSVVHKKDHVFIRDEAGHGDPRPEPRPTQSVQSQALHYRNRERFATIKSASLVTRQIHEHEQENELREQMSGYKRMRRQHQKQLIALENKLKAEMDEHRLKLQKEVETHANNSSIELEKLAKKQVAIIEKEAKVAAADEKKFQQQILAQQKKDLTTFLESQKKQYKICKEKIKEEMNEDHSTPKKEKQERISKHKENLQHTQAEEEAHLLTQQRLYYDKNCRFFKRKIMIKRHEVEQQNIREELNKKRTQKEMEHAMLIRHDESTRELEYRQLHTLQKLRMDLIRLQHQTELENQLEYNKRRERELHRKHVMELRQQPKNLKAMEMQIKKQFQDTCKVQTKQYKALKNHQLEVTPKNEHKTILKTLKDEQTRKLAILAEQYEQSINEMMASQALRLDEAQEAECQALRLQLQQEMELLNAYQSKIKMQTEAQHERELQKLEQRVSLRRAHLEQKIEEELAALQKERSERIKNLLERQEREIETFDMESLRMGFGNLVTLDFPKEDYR
Put shortly: as §1

T2 sequence (P80192 whole entry): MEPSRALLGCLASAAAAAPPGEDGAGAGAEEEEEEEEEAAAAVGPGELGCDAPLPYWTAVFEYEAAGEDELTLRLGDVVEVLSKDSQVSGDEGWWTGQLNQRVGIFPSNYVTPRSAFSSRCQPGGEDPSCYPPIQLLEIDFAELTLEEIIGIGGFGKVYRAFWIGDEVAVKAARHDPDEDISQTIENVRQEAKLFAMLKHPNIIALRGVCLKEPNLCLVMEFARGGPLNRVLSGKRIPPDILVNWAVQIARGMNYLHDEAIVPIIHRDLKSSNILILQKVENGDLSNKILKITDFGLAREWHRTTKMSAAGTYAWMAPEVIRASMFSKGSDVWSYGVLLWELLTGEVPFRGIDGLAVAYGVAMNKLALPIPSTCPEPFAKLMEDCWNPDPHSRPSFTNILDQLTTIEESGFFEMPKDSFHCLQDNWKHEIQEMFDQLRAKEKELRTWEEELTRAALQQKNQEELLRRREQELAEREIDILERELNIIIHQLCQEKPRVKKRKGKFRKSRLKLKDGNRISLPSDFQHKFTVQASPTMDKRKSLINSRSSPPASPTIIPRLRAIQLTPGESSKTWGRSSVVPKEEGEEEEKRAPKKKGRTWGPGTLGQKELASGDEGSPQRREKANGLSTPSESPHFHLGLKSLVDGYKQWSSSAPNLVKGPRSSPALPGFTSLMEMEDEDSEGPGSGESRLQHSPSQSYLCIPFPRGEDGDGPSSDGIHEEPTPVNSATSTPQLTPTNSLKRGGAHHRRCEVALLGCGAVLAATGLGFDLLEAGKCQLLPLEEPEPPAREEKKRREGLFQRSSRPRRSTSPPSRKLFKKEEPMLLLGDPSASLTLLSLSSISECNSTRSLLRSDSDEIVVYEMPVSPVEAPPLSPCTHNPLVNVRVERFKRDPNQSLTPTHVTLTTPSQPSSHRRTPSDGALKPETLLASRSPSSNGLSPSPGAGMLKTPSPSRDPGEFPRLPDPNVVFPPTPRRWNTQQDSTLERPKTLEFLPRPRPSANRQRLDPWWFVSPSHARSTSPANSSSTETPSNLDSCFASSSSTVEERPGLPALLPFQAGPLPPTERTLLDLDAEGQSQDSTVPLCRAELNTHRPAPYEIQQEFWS
T1 sequence (Q9P0L2 whole entry): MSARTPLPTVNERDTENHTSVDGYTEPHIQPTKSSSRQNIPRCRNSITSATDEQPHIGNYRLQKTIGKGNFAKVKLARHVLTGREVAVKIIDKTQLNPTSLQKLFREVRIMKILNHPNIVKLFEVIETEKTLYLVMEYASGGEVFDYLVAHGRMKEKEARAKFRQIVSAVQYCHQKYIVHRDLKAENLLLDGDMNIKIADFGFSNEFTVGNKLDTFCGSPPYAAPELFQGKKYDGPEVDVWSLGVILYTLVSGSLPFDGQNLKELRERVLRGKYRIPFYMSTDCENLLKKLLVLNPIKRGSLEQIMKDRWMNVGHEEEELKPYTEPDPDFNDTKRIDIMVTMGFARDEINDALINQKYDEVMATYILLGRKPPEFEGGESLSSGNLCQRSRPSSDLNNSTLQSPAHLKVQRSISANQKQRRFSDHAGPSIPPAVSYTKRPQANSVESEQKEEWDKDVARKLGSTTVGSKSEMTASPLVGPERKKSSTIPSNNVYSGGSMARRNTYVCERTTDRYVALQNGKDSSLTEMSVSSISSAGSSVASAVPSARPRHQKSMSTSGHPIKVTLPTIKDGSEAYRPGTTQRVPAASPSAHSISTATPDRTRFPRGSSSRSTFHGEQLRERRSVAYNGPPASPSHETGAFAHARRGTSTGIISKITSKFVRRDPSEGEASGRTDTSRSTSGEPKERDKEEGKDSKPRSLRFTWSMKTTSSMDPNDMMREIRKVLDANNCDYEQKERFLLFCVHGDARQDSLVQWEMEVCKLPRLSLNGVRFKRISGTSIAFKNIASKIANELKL

Consider FAKLAARLYRKALARQLGVAA [MMI-0300], for which the “% activity” value is given as 132% with MARK1(h); 40% in the assay with MLK1(h); 14% in the assay with MST1(h); 53% with NEK11(h); 77% with TAO3(h).

In the case of “HRRIKAWLKKIKALARQLGVAA (Mammal) [MMI-0500]”, the “% activity” value with MARK1(h) was 110%; with MLK1(h), 43%; with MST1(h) it was 3%; with NEK11(h), 2%; in the assay with TAO3(h) it was 12%.

As to KAFAKLAARLYRKALARQLGVAA [MMI-0400], the “% activity” value with MARK1(h) is on record as 120%; in the assay with MLK1(h) it was 33%; with MST1(h), 6%; in the assay with NEK11(h), 33%; in the assay with TAO3(h), 67%.

Turning to YARAAARQARAKALARQLGVAA [MMI-0100], the “% activity” value was 77% at MLK1(h) and 45% on TAO3(h).

Turning to “YARAAARQARAKALNRQLGVA (Mammal) [MMI-0200]”, the entries for the “% activity” value with MLK1(h), with MST1(h) and in the assay with NEK11(h) were 84%, 72% and 95%, respectively.
